Where no end group is shown, it is not given here.

One test has as its target T1, sSortilin S316E mutant (human, UniProt Q99523 78-755).
T1 sequence: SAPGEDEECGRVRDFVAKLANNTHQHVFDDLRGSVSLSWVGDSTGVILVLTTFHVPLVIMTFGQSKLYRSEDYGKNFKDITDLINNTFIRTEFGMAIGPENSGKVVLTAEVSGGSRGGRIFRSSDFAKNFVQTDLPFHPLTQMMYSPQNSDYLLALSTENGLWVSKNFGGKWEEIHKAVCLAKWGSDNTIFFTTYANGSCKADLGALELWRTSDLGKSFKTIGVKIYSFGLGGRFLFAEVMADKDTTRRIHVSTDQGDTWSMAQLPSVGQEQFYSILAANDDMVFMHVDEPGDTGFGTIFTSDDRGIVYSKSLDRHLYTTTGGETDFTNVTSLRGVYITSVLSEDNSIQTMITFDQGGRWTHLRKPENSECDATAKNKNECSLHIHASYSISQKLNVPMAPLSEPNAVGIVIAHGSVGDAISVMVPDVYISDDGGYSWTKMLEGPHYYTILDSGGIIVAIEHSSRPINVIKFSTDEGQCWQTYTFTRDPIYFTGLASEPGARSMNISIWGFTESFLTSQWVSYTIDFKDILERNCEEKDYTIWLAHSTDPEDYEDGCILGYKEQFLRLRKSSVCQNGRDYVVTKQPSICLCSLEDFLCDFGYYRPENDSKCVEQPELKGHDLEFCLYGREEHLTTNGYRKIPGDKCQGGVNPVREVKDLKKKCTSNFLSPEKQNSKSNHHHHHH
As to the kind of experiment: SPR, mutant sSortilin immobilised. How it is done:
(§1) The receptors were immobilized at similar concentrations (0.06 pM/mm²) and binding was analyzed by SPR.
(§2) Surface plasmon resonance (SPR) measurements were performed on a BIAcore 2000 instrument (Biacore Sweden) equipped with CM5 sensor chips maintained at 20° C. A continuous flow of HBS buffer (10 mM HEPES pH 7.4, 3.4 mM EDTA, 150 mM NaCl, 0.005% surfactant P20) passing over the sensor surface was maintained at 5 μl/min. The carboxylated dextran matrix of the sensor chip flow cells 1-3 was activated by the injection of a solution containing 0.2 M N-ethyl-N-(3 dimethylamino-propyl)carbodiimide and 0.05MN-hydroxysuccimide in water. A sortilin solution (320 μl, 5 μg/ml in 10 mM sodium acetate pH 4.0) was then injected over flow cells 1 and 2 at a flow rate of 15 μl/min. Remaining binding sites in all three flow cells were blocked by injection (5 μl/min) of 70 μl of 1 M ethanolamine pH 8.5. […] Screening of the samples was performed by injecting aliquots of 50 μl, at concentrations of 0.1-8 μM, through all flow cells with a flow rate of 5 μl/min. Unless otherwise stated, the samples were dissolved in 10 mM HEPES pH 7.4, 150 mM NaCl, 1.5 mM CaCl2, 1 mM EGTA, 0.005% surfactant P20. Sample buffer was also used as running buffer. […]
(Surface plasmon resonance follows binding to a sensor surface in real time, without labels.)

For test [1], the target named is T2, Soluble Sortilin (sSortilin), luminal domain of human Sortilin fused C-terminally to His6 (human, UniProt Q99523 78-755).
T2 construct: Expressed in CHO-K1 cells; The propeptide is removed in the mature receptor; also called wt sSortilin; wtSortilin
T2 sequence: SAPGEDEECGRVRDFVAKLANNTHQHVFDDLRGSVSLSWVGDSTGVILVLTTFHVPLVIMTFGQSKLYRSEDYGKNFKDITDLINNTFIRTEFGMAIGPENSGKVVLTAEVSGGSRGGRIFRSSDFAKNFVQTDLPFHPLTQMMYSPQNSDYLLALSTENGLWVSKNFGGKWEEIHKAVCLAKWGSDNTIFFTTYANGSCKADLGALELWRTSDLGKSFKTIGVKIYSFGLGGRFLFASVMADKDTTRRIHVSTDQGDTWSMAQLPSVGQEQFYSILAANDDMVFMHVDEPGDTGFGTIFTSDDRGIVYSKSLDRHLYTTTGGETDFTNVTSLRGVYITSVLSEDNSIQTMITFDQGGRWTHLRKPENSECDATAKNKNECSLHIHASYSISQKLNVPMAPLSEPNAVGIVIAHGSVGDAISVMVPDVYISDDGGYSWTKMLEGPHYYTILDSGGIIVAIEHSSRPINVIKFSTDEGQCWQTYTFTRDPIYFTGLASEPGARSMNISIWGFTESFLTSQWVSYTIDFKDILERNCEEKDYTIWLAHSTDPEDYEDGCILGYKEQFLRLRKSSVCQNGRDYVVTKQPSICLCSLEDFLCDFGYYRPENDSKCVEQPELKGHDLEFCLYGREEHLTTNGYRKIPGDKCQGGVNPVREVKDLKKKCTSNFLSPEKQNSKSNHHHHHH
The test is described as follows: SPR (BIAcore 3000), sSortilin immobilised on CM5 chip. As to the method:
All measurements were performed on a BIAcore 3000 instrument (Biacore Sweden) maintained at 20° C. A continuous flow of buffer F (10 mM HEPES pH=7.4, 150 mM (NH₄)₂SO₄, 1.5 mM CaCl₂, 1.5 mM EGTA and 0.005% Tween-20) was passed over the CM5 chip sensor surface at 5 μl/min.

In test [2] the target is T2, Soluble Sortilin (sSortilin), luminal …. The test is described as follows: SPR, wt sSortilin immobilised. How it is done:
as §1, §2

B1: GST-tagged Sortilin propeptide (other)
chain: QDRLDAPPPPAAPLPRWSGPIGVSWGLRAAAAGGAFPRGGRWRR
modifications: also: GST tag, order and linker not given here
notes: also called GST-Sort-pro; (GST)Sort-pro; not shown: glutathione S-transferase (GST) tag
In the case of B1, in the test with sSortilin S316E mutant, the binding result is “no binding”.

B2: Propeptide of Nerve Growth Factor (NGFpro), E. coli-expressed, His6 tag removed by TEV (ligand)
chain: EPHSESNVPAGHTIPQVHWTKLQHSLDTALRRARSAPAAAIAARVAGQTRNITVDPRLFKKRRLRSPRVLFSTQPPREAADTQDLDFEVGGAAPFNRTHRSKR
notes: also called pro-domain of Nerve Growth Factor; NGF prodomain
The term Kd denotes the concentration at which binding is half-saturated. A lower Kd goes with higher affinity. As for B2, the dissociation constant Kd in test [1] was approximately 10 nM.

B3: Mature BDNF (ligand)
chain: HSDPARRGELSVCDSISEWVTAADKKTAVDMSGGTVTVLEKVPVSKGQLKQYFYETKCNPMGYTKEGCRGIDKRHWNSQCRTTQSYVRALTMDSKKRIGWRFIRIDTSCVCTLTIKRGR
Take B3: the binding result (in test [2]; with sSortilin S316E mutant) was “binds” each time.
